Measured values published in patent US9468682B2, “Compositions and methods for enhancing penetration of biologically active substances into tissues or organs” (Joint-stock company “High Tech”, priority 2013, dated 2016).

Tests used:
[1] = Franz diffusion cell skin permeability for insulin, antibiotics and mesotherapy components; conditions: FIG. 1; donor insulin 5 IU/ml or 0.25 mg/ml; HPLC
Excerpt: The receptor solution aliquots were collected at different intervals and analyzed using HPLC.

[2] = Delivery through skin and mucous membranes in animals; assay type: in vivo; conditions: with ammonium sulfate; rats and guinea pigs
[3] = In vitro skin permeability, Franz diffusion cell, 3H-labeled substances; conditions: Table 4
Method: The vertical Franz diffusion cell was used (PermeGear, Bethlehem, USA) with the effective diffusion surface of 2 cm^2.
The experiments were carried out using the skin of male species of Sprague-Dawley rats, weight 110-120 g, taken from the front abdominal wall. Hair and adipose tissue were removed from the skin; the skin was soaked in normal saline and placed into the diffusion cell. The following solutions labeled with ^3H in accordance with the standard method (Klimova et. al. 1993) were added into the donor chamber: complex of collagenolytic digestive protease from hydrobionts (Fermencol™, Table 3), Fe-superoxide dismutase from E. coli (Table 4) and fragments of rRNA 25-55 bases in length (Table 5).

With insulin the “Effect of further increase of ammonium sulfate concentration on insulin diffusion from donor to acceptor solution” value [1] was “does not influence the effectiveness of insulin diffusion” and the “Delivery through skin and mucous membranes” value [2] was “Positive results”.

B1: Fe-superoxide dismutase from E. coli: Fe-superoxide dismutase from E. coli, labeled with 3H (protein, UniProt P0AGD3 2-193, looked up)
Superoxide dismutase [Fe]: SFELPALPYAKDALAPHISAETIEYHYGKHHQTYVTNLNNLIKGTAFEGKSLEEIIRSSEGGVFNNAAQVWNHTFYWNCLAPNAGGEPTGKVAEAIAASFGSFADFKAQFTDAAIKNFGSGWTWLVKNSDGKLAIVSTSNAGTPLTTDATPLLTVDVWEHAYYIDYRNARPGYLEHFWALVNWEFVAKNLAA
modifications: tritium (3H) label
In the case of B1, the “^3H-labeled marker in receptor medium, % from initial” value (from here on “^3H-labeled marker … % from initial”) ([3]; ammonium sulfate 0 M in donor medium, incubation 10 hrs) is reported as 0.01%, the “^3H-labeled marker … % from initial” value ([3]; ammonium sulfate 0 M in donor medium, incubation 20 hrs) is reported as 0.05% and the “^3H-labeled marker … % from initial” value ([3]; ammonium sulfate 0 M in donor medium, incubation 30 hrs) is reported as 0.07%. For the same molecule, the “^3H-labeled marker … % from initial” value ([3]; ammonium sulfate 0 M in donor medium, incubation 40 hrs) was 0.11%, the “^3H-labeled marker … % from initial” value ([3]; ammonium sulfate 0 M in donor medium, incubation 60 hrs) was 0.34% and the “^3H-labeled marker … % from initial” value ([3]; ammonium sulfate 0.1 M in donor medium, incubation 10 hrs) was 5.31%. The “^3H-labeled marker … % from initial” value ([3]; ammonium sulfate 0.1 M in donor medium, incubation 20 hrs) was 10.00%, the “^3H-labeled marker … % from initial” value ([3]; ammonium sulfate 0.1 M in donor medium, incubation 30 hrs) was 12.06% and the “^3H-labeled marker … % from initial” value ([3]; ammonium sulfate 0.1 M in donor medium, incubation 40 hrs) was 17.99%. For the same molecule, the “^3H-labeled marker … % from initial” value ([3]; ammonium sulfate 0.1 M in donor medium, incubation 60 hrs) was 20.11%, the “^3H-labeled marker … % from initial” value ([3]; ammonium sulfate 0.2 M in donor medium, incubation 10 hrs) was 5.67% and the “^3H-labeled marker … % from initial” value ([3]; ammonium sulfate 0.2 M in donor medium, incubation 20 hrs) was 12.56%. The “^3H-labeled marker … % from initial” value ([3]; ammonium sulfate 0.2 M in donor medium, incubation 30 hrs) was 17.90%, the “^3H-labeled marker … % from initial” value ([3]; ammonium sulfate 0.2 M in donor medium, incubation 40 hrs) was 27.60% and the “^3H-labeled marker … % from initial” value ([3]; ammonium sulfate 0.2 M in donor medium, incubation 60 hrs) was 35.11%. The “^3H-labeled marker … % from initial” value ([3]; ammonium sulfate 0.5 M in donor medium, incubation 10 hrs) was 7.80%, the “^3H-labeled marker … % from initial” value ([3]; ammonium sulfate 0.5 M in donor medium, incubation 20 hrs) was 10.81% and the “^3H-labeled marker … % from initial” value ([3]; ammonium sulfate 0.5 M in donor medium, incubation 30 hrs) was 16.94%. The “^3H-labeled marker … % from initial” value ([3]; ammonium sulfate 0.5 M in donor medium, incubation 40 hrs) was 31.00%, the “^3H-labeled marker … % from initial” value ([3]; ammonium sulfate 0.5 M in donor medium, incubation 60 hrs) was 35.30% and the “^3H-labeled marker … % from initial” value ([3]; ammonium sulfate 1.0 M in donor medium, incubation 10 hrs) was 7.67%. The “^3H-labeled marker … % from initial” value ([3]; ammonium sulfate 1.0 M in donor medium, incubation 20 hrs) was 10.33%, the “^3H-labeled marker … % from initial” value ([3]; ammonium sulfate 1.0 M in donor medium, incubation 30 hrs) was 16.74% and the “^3H-labeled marker … % from initial” value ([3]; ammonium sulfate 1.0 M in donor medium, incubation 40 hrs) was 31.00%. The “^3H-labeled marker … % from initial” value ([3]; ammonium sulfate 1.0 M in donor medium, incubation 60 hrs) was 35.11%.
